Earlier results as cited in paper PMC5493979.

Target: LRAT (UniProt O95237)
Chain of UniProt O95237 (O95237 whole entry): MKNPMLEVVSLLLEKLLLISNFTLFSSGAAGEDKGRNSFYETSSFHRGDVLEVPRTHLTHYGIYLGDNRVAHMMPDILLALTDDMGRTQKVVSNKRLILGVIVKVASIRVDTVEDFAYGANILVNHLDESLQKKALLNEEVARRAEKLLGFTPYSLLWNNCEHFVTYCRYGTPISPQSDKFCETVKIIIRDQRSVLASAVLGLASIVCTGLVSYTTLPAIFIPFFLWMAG

- Ki: 200 nM
Substance: apo-CRBP1 (from UniProt P09455)
